In paper PMC9482650, “Quantitative fragmentomics allow affinity mapping of interactomes” (Nature Communications, 2022):

T1: APBA3_1, O96018
T1 sequence (O96018 389-490, limits assumed, looked up): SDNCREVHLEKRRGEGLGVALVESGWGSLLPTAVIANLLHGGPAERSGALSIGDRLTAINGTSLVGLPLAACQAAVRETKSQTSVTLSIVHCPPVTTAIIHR

T2: ARHGAP21, Q5T5U3
T2 sequence (Q5T5U3 45-169, limits assumed, looked up): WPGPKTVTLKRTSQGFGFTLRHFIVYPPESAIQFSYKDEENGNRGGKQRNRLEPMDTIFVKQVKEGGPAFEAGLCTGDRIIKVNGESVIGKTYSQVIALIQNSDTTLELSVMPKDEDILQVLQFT

T3: DLG3_1, Q92796
T3 sequence (Q92796 125-227, limits assumed, looked up): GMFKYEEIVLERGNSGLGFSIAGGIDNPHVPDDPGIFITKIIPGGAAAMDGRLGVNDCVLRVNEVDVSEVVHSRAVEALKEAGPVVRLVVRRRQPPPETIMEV

T4: HTRA4, P83105
T4 sequence (P83105 378-476, limits assumed, looked up): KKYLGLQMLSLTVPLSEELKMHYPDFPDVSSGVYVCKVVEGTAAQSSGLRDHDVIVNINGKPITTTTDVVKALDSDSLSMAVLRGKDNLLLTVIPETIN

T5: MPP2, Q14168
T5 sequence (Q14168 180-250, limits assumed, looked up): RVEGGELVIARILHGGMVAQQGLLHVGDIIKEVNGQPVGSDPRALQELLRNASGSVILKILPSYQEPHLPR

T6: NHERF3_1, Q5T2W1
T6 sequence (Q5T2W1 4-100, limits assumed, looked up): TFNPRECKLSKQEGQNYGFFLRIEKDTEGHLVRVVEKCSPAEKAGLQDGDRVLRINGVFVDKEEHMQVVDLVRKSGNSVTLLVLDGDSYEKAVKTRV

T7: PTPN13_1, Q12923
T7 sequence (Q12923 1088-1188, limits assumed, looked up): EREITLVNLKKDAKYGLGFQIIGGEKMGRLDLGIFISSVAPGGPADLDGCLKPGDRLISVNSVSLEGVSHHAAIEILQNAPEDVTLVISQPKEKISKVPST

T8: RAPGEF6, Q8TEU7
T8 sequence (Q8TEU7 525-625, limits assumed, looked up): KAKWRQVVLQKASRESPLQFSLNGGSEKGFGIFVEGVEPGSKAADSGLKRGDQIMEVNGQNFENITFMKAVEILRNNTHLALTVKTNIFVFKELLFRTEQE

T9: SHANK1, Q9Y566
T9 sequence (Q9Y566 658-767, limits assumed, looked up): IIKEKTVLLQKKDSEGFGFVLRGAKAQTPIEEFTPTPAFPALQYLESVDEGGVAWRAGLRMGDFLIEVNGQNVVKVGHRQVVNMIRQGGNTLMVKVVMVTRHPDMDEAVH

T10: SNTG2, Q9NY99
T10 sequence (Q9NY99 68-166, limits assumed, looked up): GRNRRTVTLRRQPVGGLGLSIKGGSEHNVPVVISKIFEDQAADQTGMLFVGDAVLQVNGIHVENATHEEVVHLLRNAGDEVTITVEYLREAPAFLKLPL

T11: TIAM2, Q8IVF5
T11 sequence (Q8IVF5 885-986, limits assumed, looked up): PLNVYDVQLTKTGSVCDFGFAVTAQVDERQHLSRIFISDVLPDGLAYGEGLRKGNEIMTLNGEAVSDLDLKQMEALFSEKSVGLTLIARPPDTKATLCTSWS

T12: TX1BP3, O14907
T12 sequence (O14907 10-122, limits assumed, looked up): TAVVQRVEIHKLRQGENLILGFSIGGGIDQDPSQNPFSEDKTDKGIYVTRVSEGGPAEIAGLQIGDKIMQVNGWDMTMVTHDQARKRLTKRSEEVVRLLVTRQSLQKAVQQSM


Legend:
Assay in all cases: holdup assay
Parameters in all cases: key: below the threshold = too weak to quantify, mostly under pKd 3.1 to 4
Conditions in all cases: plain residues with an end cap or a label only (N-terminal biotin on a linker: ttds)
[1] = target: T1, APBA3_1, O96018
[2] = target: T2, ARHGAP21, Q5T5U3
[3] = target: T3, DLG3_1, Q92796
[4] = target: DLG4_3, P78352
Sequence of DLG4_3, P78352 (P78352 306-403): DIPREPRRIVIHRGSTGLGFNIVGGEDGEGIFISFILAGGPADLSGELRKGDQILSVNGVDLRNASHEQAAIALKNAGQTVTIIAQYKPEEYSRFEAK

[5] = target: GOPC, Q9HD26
[6] = target: GRIP2_4, Q9C0E4
Sequence of GRIP2_4, Q9C0E4 (Q9C0E4 446-548): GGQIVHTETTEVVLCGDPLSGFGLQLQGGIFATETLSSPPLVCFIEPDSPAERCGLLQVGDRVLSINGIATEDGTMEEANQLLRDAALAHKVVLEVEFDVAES

[7] = target: T4, HTRA4, P83105
[8] = target: IL16_3, Q14005
Sequence of IL16_3, Q14005 (Q14005 1107-1207): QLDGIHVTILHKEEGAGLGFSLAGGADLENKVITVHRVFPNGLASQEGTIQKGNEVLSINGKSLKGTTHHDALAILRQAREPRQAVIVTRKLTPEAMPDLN

[9] = target: Inadl_10, Q8NI35
Sequence of Inadl_10, Q8NI35 (Q8NI35 1673-1763): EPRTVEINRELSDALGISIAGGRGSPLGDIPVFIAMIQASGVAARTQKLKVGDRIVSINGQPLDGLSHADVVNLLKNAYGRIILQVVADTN

[10] = target: Inadl_6, Q8NI35
Sequence of Inadl_6, Q8NI35 (Q8NI35 1058-1167): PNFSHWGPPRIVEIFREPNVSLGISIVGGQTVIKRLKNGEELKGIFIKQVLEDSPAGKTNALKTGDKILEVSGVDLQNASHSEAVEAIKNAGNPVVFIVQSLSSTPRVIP

[11] = target: LAP2, Q96RT1
Sequence of LAP2, Q96RT1 (Q96RT1 other isoform, or with tags, fused parts or gaps): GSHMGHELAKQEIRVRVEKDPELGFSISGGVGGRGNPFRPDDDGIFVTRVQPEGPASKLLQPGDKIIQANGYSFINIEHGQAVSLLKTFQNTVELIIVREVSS

[12] = target: LNX1_3, Q8TBB1
Sequence of LNX1_3, Q8TBB1 (Q8TBB1 500-596): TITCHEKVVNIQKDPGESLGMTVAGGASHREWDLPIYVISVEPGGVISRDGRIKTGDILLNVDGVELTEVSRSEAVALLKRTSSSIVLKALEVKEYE

[13] = target: MAGI3_2, Q5TCQ9
Sequence of MAGI3_2, Q5TCQ9 (Q5TCQ9 398-503): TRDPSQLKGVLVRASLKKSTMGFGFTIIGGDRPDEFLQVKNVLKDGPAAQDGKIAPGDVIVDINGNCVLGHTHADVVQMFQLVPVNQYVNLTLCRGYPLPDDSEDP

[14] = target: T5, MPP2, Q14168
[15] = target: T6, NHERF3_1, Q5T2W1
[16] = target: NHERF4_2, Q86UT5
Sequence of NHERF4_2, Q86UT5 (Q86UT5 220-308): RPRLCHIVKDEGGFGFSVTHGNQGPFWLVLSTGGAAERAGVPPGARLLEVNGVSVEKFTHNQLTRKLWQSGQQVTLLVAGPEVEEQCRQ

[17] = target: PARD3_3, Q8TEW0
Sequence of PARD3_3, Q8TEW0 (Q8TEW0 582-685): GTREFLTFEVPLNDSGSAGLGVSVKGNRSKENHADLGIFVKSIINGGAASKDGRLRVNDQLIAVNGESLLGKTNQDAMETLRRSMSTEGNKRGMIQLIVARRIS

[18] = target: PDZRN4_1, Q6ZMN7
Sequence of PDZRN4_1, Q6ZMN7 (Q6ZMN7 213-318): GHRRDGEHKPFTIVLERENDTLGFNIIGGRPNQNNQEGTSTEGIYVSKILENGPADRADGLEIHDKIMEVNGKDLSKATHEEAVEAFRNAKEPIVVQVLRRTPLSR

[19] = target: T7, PTPN13_1, Q12923
[20] = target: T8, RAPGEF6, Q8TEU7
[21] = target: SCRIB_3, Q14160
Sequence of SCRIB_3, Q14160 (Q14160 999-1103): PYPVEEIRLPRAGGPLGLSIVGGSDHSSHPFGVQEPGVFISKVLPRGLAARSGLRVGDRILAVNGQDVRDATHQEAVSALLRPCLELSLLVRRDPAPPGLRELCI

[22] = target: T9, SHANK1, Q9Y566
[23] = target: T10, SNTG2, Q9NY99
[24] = target: T11, TIAM2, Q8IVF5
[25] = target: T12, TX1BP3, O14907

| Binder | pKd [1] | pKd [2] | pKd [3] | pKd [4] | pKd [5] | pKd [6] | pKd [7] | pKd [8] | pKd [9] | pKd [10] | pKd [11] | pKd [12] | pKd [13] | pKd [14] | pKd [15] | pKd [16] | pKd [17] | pKd [18] | pKd [19] | pKd [20] | further results |
| --- | --- | --- | --- | --- | --- | --- | --- | --- | --- | --- | --- | --- | --- | --- | --- | --- | --- | --- | --- | --- | --- |
| PKTPPTDTSV [KIR3DL3, Q8N743] | below the threshold | 3.61 | 3.69 | below the threshold | 3.5 | below the threshold | below the threshold | below the threshold | below the threshold | below the threshold | below the threshold | below the threshold | 3.71 | below the threshold | below the threshold | below the threshold | below the threshold | below the threshold | below the threshold | below the threshold | pKd [21]: below the threshold; pKd [22]: below the threshold; pKd [23]: 3.73; pKd [24]: below the threshold; pKd [25]: 3.67 |
| TVASEKESVM [SLC1A5, Q15758] | below the threshold | below the threshold | below the threshold | below the threshold | 3.76 | below the threshold | below the threshold | below the threshold | below the threshold | below the threshold | below the threshold | below the threshold | below the threshold | below the threshold | 4.42 | below the threshold | below the threshold | 3.87 | below the threshold | below the threshold | pKd [21]: 3.97; pKd [22]: below the threshold; pKd [23]: 3.75; pKd [24]: below the threshold; pKd [25]: 3.69 |
| VLRLQSETSV [VANGL1, Q8TAA9] | below the threshold | below the threshold | 3.96 | 4.51 | below the threshold | below the threshold | below the threshold | below the threshold | below the threshold | below the threshold | 4.07 | below the threshold | 5.14 | below the threshold | 3.98 | below the threshold | below the threshold | 4.46 | below the threshold | below the threshold | pKd [21]: 4.54; pKd [22]: 3.77; pKd [23]: 4.53; pKd [24]: below the threshold; pKd [25]: 4.21 |
